Assay: yeast display, Sf9 membrane polyspecificity reagent, FACS + sequencing; frameworks hold sequencing errors
In short: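 After 36–48 hours of galactose induction, yeast (Saccharomyces cerevisiae BJ5465) displaying a synthetic nanobody library were stained at 4 °C for 1 hour with 10% biotinylated, detergent-solubilized Sf9 membrane reagent. Streptavidin microbeads enriched the stained cells before FACS sorting into low and high (top ~1%) gates on anti-HA and streptavidin fluorescence. Each clone's polyreactivity label reflects its gate of origin.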

Sequence	polyreactivity (PSR sort gate)
QVQLVESGGGLVQAGGSLRLSCAASGNICRINGMGWYRQAPGKERELVASITRSGSTYYADSVKGRFTISRDNAKNTVYLQMNSLKPEDTAVYYCNADGWYWQAQGYDYWGQGTQVTVSS	low polyreactivity
QVQLVESGGGLVQAGGSLRLSCAASGNIFAINAMGWYRQPPGKERELVAAISSRGGSTTYADSVKGRFTISRDIAKNTVYLQMNSLKPEDTAVYDCAADFVRDRFFRYDYWGQGTQVTVSS	high polyreactivity
QVQLVESGGGLVQAGGSLRLSCAASGNIFARYAMGWYRQATGKERDLVSAISRSGGSTYYADSVKGRFTISRDNAKNSVYLQMKCLKPEDTAVYYCNAKSYGVLYWFAYDYWGQGTQVTVSS	high polyreactivity
QVQLVESGGGLVQAGGSLRLSCAASGNIFATYAMGWYRQAPGKERELVAAIRSGGNTNYADSVKGRFTISRDNAKNTVYLQMNSLKPEDTAVYYCNAYKIFYGYIRYNYWGQGTQVTVSS	high polyreactivity
QVQLVESGGGLVQAGGSLRLSCAASGNIFAWYAMGGYRQAPGKERELVADISSRGGSTSYADSVKGRFTISRDNAKKTVYLQMNSLKPEDTAVYYCAASYYYPFEYYYWGQGTQVTVSS	low polyreactivity
QVQLVESGGGLVQAGGSLRLSCAASGNIFAWYAMGWYRQAPGKERELDADISSRGGSTYYADSVKGRFTISRDNAKNTVYLQMNSLKPEDTAVYYCAAVWYWTQDYDYWGQGTQVTVSS	low polyreactivity
QVQLVESGGGLVQAGGSLRLSCAASGNIFDEYTMGWYRQAPWKERELVAAINSGGSTDYADSVKGRFTISRDNAKNTVYLQMNSLKPEDTAVYYCARDVWPTKIQQQPGYGRGEYWGQGTQVTVSS	low polyreactivity
QVQLVESGGGLVQAGGSLRLSCAASGNIFDLYAMGWYRQAPGKERELVAAITRSSSRTYYADSVKGRFTISRDNAKNTVYLQMNSLKPEDTAVYYCRAKQVNRFDYWGQGTQVTVSS	high polyreactivity
QVQLVESGGGLVQAGGSLRLSCAASGNIFESYGMGWYRQAPGKERELVATINTSSGSTYYADSVKGRFTISRDNAKNTVYLQMNILKPEDTAVYYCAAEWYPYPWGYGYWGQGTQVTVSS	low polyreactivity
QVQLVESGGGLVQAGGSLRLSCAASGNIFESYGMGWYRQAPGKERELVATINTSSGSTYYADSVKGRFTISRDNAKNTVYLQMNSLKPEDTAVYYCAARFDSFWVEYDYWGQGTQVTVSS	low polyreactivity
QVQLVESGGGLVQAGGSLRLSCAASGNIFESYGMGWYRQAPGKERELVATINTSSGSTYYADSVKGRFTISRDNAKNTVYLQMNSLKPEDTAVYYCAVEGDYWYVSMYYWGQGTQVTVSS	low polyreactivity
QVQLVESGGGLVQAGGSLRLSCAASGNIFFRNARGWYRQAPGKERELVAAITWSGGSTYYADSVKGRFTISRDNAKNTVFLQMNSLKPEDTAVYYCAADAGQYFTYSGDDNLDYWGQGTQVTVSS	low polyreactivity
QVQLVESGGGLVQAGGSLRLSCAASGNIFFSNAMGWYRQAPGKERELGASISQSGGSTYYADAVKGRFTISRDNAKNTVYLQMNSLKPEDTAVYYCAATQVRRGPAWGRDYWGQGTQETVSS	low polyreactivity
QVQLVESGGGLVQAGGSLRLSCAASGNIFFTYAMGWYIQEPGKERELVAAITSGGRTYYADSVKGRFTISRDNAKNTLHLQMNSLKPEDTAVYYCAAYYKYLGYGYWGQGTQVTVSS	high polyreactivity
QVQLVESGGGLVQAGGSLRLSCAASGNIFGKNVMGWYRQAPGKEREFVAAITSRGGRTNYADSVKGRFTISRDNAKNTVYLQMNSLKPEDTAVYYCAKDKNYPSGYGYWGQGTQVTVSS	high polyreactivity
QVQLVESGGGLVQAGGSLRLSCAASGNIFGLNAMGWYTQAPGKEREFVAAITKTGGSTYYADSVKGRFTISRDNAKNTVYLQMNSLKPEDTAVYYCAARGLPRGYPYEYGYWGQVTQVTVSS	high polyreactivity
QVQLVESGGGLVQAGGSLRLSCAASGNIFGQYAMGWYRQAPGKEREFVAAITWSGGSTYYADSVKGRFTISRDNAKNTVYLQMNSLKPEDTAVYYCAADYGKTHRYDYDYWGQGTQVTVSS	low polyreactivity
QVQLVESGGGLVQAGGSLRLSCAASGNIFGTYAMGWSRQAPRKERELVATISNDDRTNYADSVKGRFTISRDNAKNTVYFQMNSLKPADTAVYYCAVEYPSIAYRKSSKTFDYWGQGTQVTVSS	low polyreactivity
QVQLVESGGGLVQAGGSLRLSCAASGNIFGVYAMGWYRQAPGKERELVAAIRYSTVSTYYADSVKGRFTISRDKAKNTVYLQMNSLKPQDTAVYNSAAHRYYWSLYGYDYWGHGTQVTVSS	high polyreactivity
QVQLVESGGGLVQAGGSLRLSCAASGNIFGVYTMGWYRQAPGKERELVAAISDGGSTYYADSVKVRFTISRDNAKNTVYLQMNSLKPEDTAVYYCAASKIGYWGDYFRYYYWGQGTQVTVSS	low polyreactivity
QVQLVESGGGLVQAGGSLRLSCAASGNIFGYYVMGWYRQAPGKERELVAAITWSAGTTNYADSVKGRFTISRDNAKNTVYLQMNSLKPEDTAVYYCAVTWWYQDYDLTWYLYDYWGQGTQVTVSS	low polyreactivity
QVQLVESGGGLVQAGGSLRLSCAASGNIFHYYPMGWYRQAPGKERELVATISWRGDGTNYADSVKGRFTISRDNEKNTVYLQMISLKPEDTAVYYCAARGVWPDYDYWGQGTQVTVSS	low polyreactivity

Sequence	polyreactivity (PSR sort gate)
QVQLVESGGGLVQAGGSLRLSCAASGNIFKGYAMGWYRQAPGKERALVAAISKSGGSTYDADSVKGRFTISRDNAKNTVYLQMNSLKPDDTAVYYCNARRKYGGGQTINGYDYWGQGTQVTVSS	high polyreactivity
QVQLVESGGGLVQAGGSLRLSCAASGNIFKVNTMGWYRQAPGKERELVAAINRSGGRPYYADSVKGSFTISRDNAKNTVYLQMNSLKPEDTAVYYCATRVHKSTHGYDYWGQGTQVTVSS	high polyreactivity
QVQLVESGGGLVQAGGSLRLSCAASGNIFLDYAMGWYRQAPGKERELVAANTSRVDDTYYADSVKGRFTISLDNAKNTVYLQMTSLKPEFTAVDYCAADYSVTLLIGGYYWFYAFDYWGQGTQVTVSS	low polyreactivity
QVQLVESGGGLVQAGGSLRLSCAASGNIFLYYAMGWYRQAPGKEMELVAAISWSGSSTYYADSVKGRFTISRDNAKNTVYLQMNSLKPEDTAVYYCNKRATRSRRRGYWGQGTQVTVSS	low polyreactivity
QVQLVESGGGLVQAGGSLRLSCAASGNIFLYYAMGWYRQAPGKERELDADIDSSGASTYYADSVKGRFTISRDNAKNNVYLQMNSLKPEDTAVYYCAAEFHWWYAGYDYGYWGQGTQVTVSS	low polyreactivity
QVQLVESGGGLVQAGGSLRLSCAASGNIFLYYAMGWYRQAPGKERELVADIDSSGASTYYADSVKGRFTISRDNAKNTVYLEMNSLKPEDTAVYYCAAEFHWWYAGYDYGYWGQGTQVTVSS	low polyreactivity
QVQLVESGGGLVQAGGSLRLSCAASGNIFLYYAMGWYRQAPGKERELVADIDSSGASTYYADSVKGRFTISRDNAKNTVYLQMNSLKPEDTAVYYCAARGRKNQRRYGYWGQGTQVTVSS	low polyreactivity
QVQLVESGGGLVQAGGSLRLSCAASGNIFPAYAMGWYRQAPGKERELVATISRRGGGTYYADSVKGRFTISRDNAKNTVYLQMNSLKPEDTAVYYCNVAGWTSAYDYWGQGTQVTVSS	low polyreactivity
QVQLVESGGGLVQAGGSLRLSCAASGNIFRVYDMGWYRQAPGKERELVAVIRWSSGRTYYADSVKGRFTISRDNAKNTVYLQMNSLKPEDTAVYYCATKLWRVPRNSHYDSYEYWGQGTQVTVSS	high polyreactivity
QVQLVESGGGLVQAGGSLRLSCAASGNIFRYYAMGWYRQAPGKERELVARISTGSSTYYADSVKGRFTISRDNAKNTVYLQMNSLKPEDTAVYYCAAANYRYRVPWFYYWGQGTQVTVSS	high polyreactivity
QVQLVESGGGLVQAGGSLRLSCAASGNIFRYYVMGWYRQAPGKEREFVAAITSSGGSTYYADSVKGRFTISRDNAKNTVYLQMNSLKPEDTAVYYCAKDYWDPGWAEYDYWGQGTQVTVSS	low polyreactivity
QVQLVESGGGLVQAGGSLRLSCAASGNIFSYYAMGLYRPAPGKERELVAAIDWNGGTTYYADSVKGRFTISRDNAKNTVYLQMNSLKPEDTAVYYCAAAWYWYWFLFEGAPYDYWGQGTQVTVSS	high polyreactivity
QVQLVESGGGLVQAGGSLRLSCAASGNIFSYYAMGWYRQATGIERELVAAISGRGTRTYYADSVKGRFSISRDNAMNTVYLQMNSLNPEDTAVYYCATEVRRLNEFDYWGQGTQVTVSS	high polyreactivity
QVQLVESGGGLVQAGGSLRLSCAASGNIFTNNAMGWYRQAPGKERELVAAISSSGGRTFYADSVKGRFTITRDNAKNTVNLQMNSLKPEDTSVYYCNKVASTRVSYLDMEYWGQGTQVTVSS	high polyreactivity
QVQLVESGGGLVQAGGSLRLSCAASGNIFTPYTMGWYRQAPGKERELVASINNAGTTKYADSVKGRFTISRDNAKNTVYLQMNSLKPEDTAVYFCAAQRRHALSSYPKHYYWGQGTQVTVSS	low polyreactivity
QVQLVESGGGLVQAGGSLRLSCAASGNIFTYNAMGWYRQAPGKERELVAAISWTADSTYYADSVKGRFTISRDNAKNTVYLQMNSLKPEDTAVYYFAADSQYADYGYWGQGTQVTVSS	high polyreactivity
QVQLVESGGGLVQAGGSLRLSCAASGNIFTYYVMGWYRQAPGKERELVAAISRRGGSTYYADSVKGRFTISRDNAKNTVYLQMNSLKPEDTAVYYCAKKYPRDMDYWGQGTQVTVSS	high polyreactivity
QVQLVESGGGLVQAGGSLRLSCAASGNIFVLYAMGWYRQAPGKERELVASITSDGITYYADSVKGRFTISRDNAKNTVYLQMNSLKPEDTAVYYCAVDRSYRYLPRGDYWGQGTQVTVSS	low polyreactivity
QVQLVESGGGLVQAGGSLRLSCAASGNIFVYYAMGWYRQAPGKERELVAAISFRGGTTYYADSVKGRFTISRDNAKNTVYLQMNSLKPEDTAVYYCAKDIFQIGYRRYDSWGQGTQVTVSS	low polyreactivity
QVQLVESGGGLVQAGGSLRLSCAASGNIFWGNAMGWYRQAPGKERELVATITTGGSTNYADSVKGRFTISRDNAKNTVYLQMNSLKPEDTAVYYCNKRTTTASHLTSDYWGQGTQVTVSS	low polyreactivity
QVQLVESGGGLVQAGGSLRLSCAASGNIFWWDAMGWYRQAPGKERELVAAITSDSTTYYADSVKGRFTISRDNAKNTVYLQMNSLKPEDTAVYYCAAYSYGGQGVDYGYWGQGTQVTVSS	low polyreactivity
